These are literature values, as cited in article PMC8758526.

Data set [1] addresses TREM-1 (Mus musculus) (UniProt Q9JKE2).
In data set [2] the target is TLR4 (Mus musculus) (UniProt Q9QUK6).

pKd: −log10 of the molar value.

Chain of UniProt Q9JKE2 (Q9JKE2 21-230): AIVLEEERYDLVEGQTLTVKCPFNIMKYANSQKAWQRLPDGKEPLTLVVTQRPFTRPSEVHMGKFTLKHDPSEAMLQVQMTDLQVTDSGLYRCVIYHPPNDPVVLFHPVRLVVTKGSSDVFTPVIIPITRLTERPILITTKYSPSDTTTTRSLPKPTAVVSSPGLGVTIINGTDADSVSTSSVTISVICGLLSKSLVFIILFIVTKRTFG
Chain of UniProt Q9QUK6 (Q9QUK6 26-835): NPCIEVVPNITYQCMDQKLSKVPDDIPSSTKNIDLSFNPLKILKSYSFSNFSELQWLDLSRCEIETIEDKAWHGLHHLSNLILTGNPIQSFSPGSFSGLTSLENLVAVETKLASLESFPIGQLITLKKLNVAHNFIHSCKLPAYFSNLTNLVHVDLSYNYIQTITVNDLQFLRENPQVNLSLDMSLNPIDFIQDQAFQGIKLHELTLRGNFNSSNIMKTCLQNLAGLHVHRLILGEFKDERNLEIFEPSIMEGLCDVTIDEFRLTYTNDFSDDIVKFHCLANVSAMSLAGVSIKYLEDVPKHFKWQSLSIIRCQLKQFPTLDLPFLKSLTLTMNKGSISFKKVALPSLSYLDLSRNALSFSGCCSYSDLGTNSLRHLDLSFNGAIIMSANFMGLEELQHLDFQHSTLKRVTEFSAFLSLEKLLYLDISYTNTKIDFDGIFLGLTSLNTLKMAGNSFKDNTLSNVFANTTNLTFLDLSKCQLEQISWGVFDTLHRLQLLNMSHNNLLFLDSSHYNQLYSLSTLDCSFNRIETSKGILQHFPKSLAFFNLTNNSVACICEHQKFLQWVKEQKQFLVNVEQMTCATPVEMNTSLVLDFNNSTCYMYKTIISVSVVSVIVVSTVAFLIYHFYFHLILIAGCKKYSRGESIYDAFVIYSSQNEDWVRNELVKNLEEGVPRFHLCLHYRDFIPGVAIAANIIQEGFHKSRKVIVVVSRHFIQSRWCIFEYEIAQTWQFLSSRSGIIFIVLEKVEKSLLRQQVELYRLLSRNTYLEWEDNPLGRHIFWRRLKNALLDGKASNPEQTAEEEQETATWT

Turning to eCIRP (from UniProt P60824), the pKd (as a rule, −log10 of the Kd, conventionally taken in molar units) is 6.93 in data set [1] and 6.21 in data set [2].
